From US20240092836A1

target: Recombinant Human CTLA4-Fc chimera (R&D systems) (human) (UniProt P16410); experiment: ELISA, signal over SA

ELISA S/N(SA) | Binder
28.6 | GGCLHPFLPIRSVHFCGC (peptide, not shown: large carriers; small tags and cut ends) [C4m#19-5th4w-NN6-52]
24.9 | GGCSHPFLPILSVHFCPF (peptide, not shown: large carriers; small tags and cut ends) [C4m#19-5th4w-NN6-69-1]
24.9 | GGCWHPVLPIRSCHFCAV (peptide, not shown: large carriers; small tags and cut ends) [C4m#19-5th4w-NN6-79]
22.9 | GGCWHPFLPIFSVHFCGC (peptide, not shown: large carriers; small tags and cut ends) [C4m#19-5th4w-NN6-85]
33.3 | GGCLHPGLPIRSLHFCPR (peptide, not shown: large carriers; small tags and cut ends) [C4m#19-5th4w-NN6-54]
24.7 | GGCLHPWLPIRSRHFCSR (peptide, not shown: large carriers; small tags and cut ends) [C4m#19-5th4w-NN6-68]
45.4 | GGCLHPFLPIRSVHFCPR (peptide, not shown: large carriers; small tags and cut ends) [C4m#19-5th4w-NN6-67]
22.1 | GGCWHPYLPIVSWHFCSR (peptide, not shown: large carriers; small tags and cut ends) [C4m#19-5th4w-NN6-51]
27.7 | GGCMHPYLPIVSVHFCPC (peptide, not shown: large carriers; small tags and cut ends) [C4m#19-5th4w-NN6-57]
35.5 | GGCMHPFLPIRSMHFCPL (peptide, not shown: large carriers; small tags and cut ends) [C4m#19-5th4w-NN6-70]
30.5 | GGCRHPFLPIVSTHFCSR (peptide, not shown: large carriers; small tags and cut ends) [C4m#19-5th4w-NN6-77]
27.1 | GGCWHPFLPIQSLHFCGV (peptide, not shown: large carriers; small tags and cut ends) [C4m#19-5th4w-NN6-56]
28.3 | GGCFHPFLPIRSLHFCCR (peptide, not shown: large carriers; small tags and cut ends) [C4m#19-5th4w-NN6-82]
24.9 | GGCLHPWLPIVSVHFCAR (peptide, not shown: large carriers; small tags and cut ends) [C4m#19-5th4w-NN6-69-3]
30 | GGCVHPFLPIRSVHFCAL (peptide, not shown: large carriers; small tags and cut ends) [C4m#19-5th4w-NN6-92-1]
22.9 | GGCRHPYLPIASPHFCPG (peptide, not shown: large carriers; small tags and cut ends) [C4n#19-5th2w-NNS6-71]
28.9 | GGCCHPWLPIVSTHFCGL (peptide, not shown: large carriers; small tags and cut ends) [C4m#19-5th4w-NN6-93]
32.3 | GGCFHPYLPIRSWHFCSR (peptide, not shown: large carriers; small tags and cut ends) [C4m#19-5th4w-NN6-81]
27.6 | GGCLHPHLPIWSLHFCPL (peptide, not shown: large carriers; small tags and cut ends) [C4m#19-5th4w-NN6-59]
32.2 | GGCRHPFLPIYSVHFCAC (peptide, not shown: large carriers; small tags and cut ends) [C4m#19-5th4w-NN6-53]
29.5 | GGCVHPSLPILSVHFCPR (peptide, not shown: large carriers; small tags and cut ends) [C4m#19-5th4w-NN6-55-4]
27.9 | GGCWHPALPIRSWHFCPR (peptide, not shown: large carriers; small tags and cut ends) [C4m#19-5th4w-NN6-78]
21.4 | GGCLHPVLPIRSFHFCWR (peptide, not shown: large carriers; small tags and cut ends) [C4m#19-5th4w-NN6-87]
29.5 | GGCWHPFLPISSPHFCGR (peptide, not shown: large carriers; small tags and cut ends) [C4m#19-5th4w-NN6-65-1]

More lines, now with the values behind:

Binder | ELISA S/N(SA)
GGCLHPFLPIFSSHFCAL (peptide, not shown: large carriers; small tags and cut ends) [C4m3127-4th-NNS6-28] | 23.2
GGCRHPFLPIWSWHFCPF (peptide, not shown: large carriers; small tags and cut ends) [C4m#19-5th4w-NN6-7] | 23
GGCRHPFLPIWSHHFCVC (peptide, not shown: large carriers; small tags and cut ends) [C4m#19-5th4w-NN6-11] | 22.1
GGCFHPYLPISSVHFCGR (peptide, not shown: large carriers; small tags and cut ends) [C4m#19-5th2w-NNS6-94] | 22.4
GGCKHPVLPIVSLHFCPW (peptide, not shown: large carriers; small tags and cut ends) [C4m3127-4th-NNS6-90] | 22.9
GGCMHPYLPIKSVHFCPL (peptide, not shown: large carriers; small tags and cut ends) [C4m#19-5th2w-NNS6-55] | 28.3
GGCPHPFLPIWSVHFCPF (peptide, not shown: large carriers; small tags and cut ends) [C4m#19-5th4w-NN6-32] | 27.2
GGCWHPFLPIRSYHFCPW (peptide, not shown: large carriers; small tags and cut ends) [C4m#19-5th2w-NNS6-14] | 34.7
GGCWHPWLPILSPHFCPR (peptide, not shown: large carriers; small tags and cut ends) [C4m#19-5th4w-NN6-21] | 37.5
GGCWHPWLPIYSHHFCPI (peptide, not shown: large carriers; small tags and cut ends) [C4m#19-5th4w-NN6-24] | 27.6
GGCPHPWLPIFSRHFCPV (peptide, not shown: large carriers; small tags and cut ends) [C4m#19-5th4w-NN6-47] | 34.2
GGCKHPVLPIWSWHFCRI (peptide, not shown: large carriers; small tags and cut ends) [C4m#19-5th4w-NN6-50] | 28.1
GGCRHPYLPIVSRHFCPF (peptide, not shown: large carriers; small tags and cut ends) [C4m#19-5th4w-NN6-4] | 31.6
GGCRHPHLPIWSWHFCGR (peptide, not shown: large carriers; small tags and cut ends) [C4m#19-5th4w-NN6-23] | 30.2
GGCFHPFLPIRSDHFCSR (peptide, not shown: large carriers; small tags and cut ends) [C4m#19-5th4w-NN6-34] | 32.2
GGCSHPQLPILSDHFCSA (peptide, not shown: large carriers; small tags and cut ends) [C4m#19-5th4w-NN6-20] | 30.6
GGCLHPVLPIRSRHFCPV (peptide, not shown: large carriers; small tags and cut ends) [C4m#19-5th4w-NN6-25] | 38.9
GGCRHPYLPIWSIHFCQK (peptide, not shown: large carriers; small tags and cut ends) [C4m#19-5th4w-NN6-19] | 29.7
GGCWHPFLPIRSSHFCPS (peptide, not shown: large carriers; small tags and cut ends) [C4m#19-5th2w-NNS6-21] | 31.1
GGCMHPFLPIQSVHFCSR (peptide, not shown: large carriers; small tags and cut ends) [C4m#19-5th2w-NNS6-22] | 29.3
GGCWHPFLPIRSLHFCPR (peptide, not shown: large carriers; small tags and cut ends) [C4m#19-5th4w-NN6-39] | 35.6
GGCLHPFLPIRSVHFCPF (peptide, not shown: large carriers; small tags and cut ends) [C4m#19-5th4w-NN6-15] | 39.9
GGCFHPYLPIRSWHFCGR (peptide, not shown: large carriers; small tags and cut ends) [C4m#19-5th4w-NN6-9] | 28.8
GGCRHPFLPIVSWHFCGR (peptide, not shown: large carriers; small tags and cut ends) [C4m#19-5th4w-NN6-44] | 30.1
GGCQHPWLPISSWHFCPR (peptide, not shown: large carriers; small tags and cut ends) [C4m#19-5th2w-NNS6-67] | 25.5
GGCLHPFLPISSWHFCGR (peptide, not shown: large carriers; small tags and cut ends) [C4m#19-5th4w-NN6-37] | 22.7
GGCRHPWLPIVSWHFCSR (peptide, not shown: large carriers; small tags and cut ends) [C4m3127-4th-NNS6-87] | 21.4
